The text below walks through data of paper PMC10313822, “Disruption of ER ion homeostasis maintained by an ER anion channel CLCC1 contributes to ALS-like pathologies” (Cell Research, 2023).

The data set deals with the molecule itself. The experiment in a line: SEC; Superose 6 Increase, TBS (50 mM Tris-HCl pH 7.4, 150 mM NaCl) with 0.025% DDM and 2 mM DTT; size estimated from standard markers.

B1: purified full-length mouse CLCC1, His-tagged (natural protein, UniProt Q99LI2 19-539, looked up)
chain: HDDDWIDPTDMLNYDAASGTMRKSQVRSGTSEKKEVSPDSSEAEELSDCLHRLDSLTHKVDSCEKKKMKDYESQSNPVFRRYLNKILIEAGKLGLPDENKVEMRYDAEILLSRQTLLEIQKFLSGEEWKPGALDDALSDILINFKCHDSEAWKWQFEDYFGVDPYNVFMVLLCLLCLVVLVATELWTYVRWYTQMKRIFIISFLLSLAWNWIYLYKMAFAQHQANIAGMEPFDNLCAKKMDWTGSLWEWFTSSWTYKDDPCQKYYELLIVNPIWLVPPTKALAITFTNFVTEPLKHIGKGAGEFIKALMKEIPVLLQIPVLAILALAVLSFCYGAGRSVPMLRHFGGPDREPPRALEPDDRRRQKGLDYRLHGGAGDADFSYRGPAGSIEQGPYDKMHASKRDALRQRFHSGNKSPEVLRAFDLPDTEAQEHPEVVPSHKSPIMNTNLETGELPGESTPTEYSQSAKDVSGQVPSAGKSSPTVDKAQLKTDSECSPPGGCPPSKEAAVAAHGTEPVSSPCG
notes: CLCC1, mouse, full length (NM_145543.2; 539 residues by the printed limits of the C-terminal polypeptide 355-539); The predicted signal peptide may be removed in insect cells; also called mCLCC1; WT mCLCC1; source: High Five insect cells (baculovirus), purified (Ni-NTA, Superose 6 Increase); not shown: His10, C-terminal, kept
With B1, the binding result was “binds”.

B2: C350F mutant mouse CLCC1, purified (natural protein, UniProt Q99LI2 19-539, looked up)
chain: HDDDWIDPTDMLNYDAASGTMRKSQVRSGTSEKKEVSPDSSEAEELSDCLHRLDSLTHKVDSCEKKKMKDYESQSNPVFRRYLNKILIEAGKLGLPDENKVEMRYDAEILLSRQTLLEIQKFLSGEEWKPGALDDALSDILINFKCHDSEAWKWQFEDYFGVDPYNVFMVLLCLLCLVVLVATELWTYVRWYTQMKRIFIISFLLSLAWNWIYLYKMAFAQHQANIAGMEPFDNLCAKKMDWTGSLWEWFTSSWTYKDDPCQKYYELLIVNPIWLVPPTKALAITFTNFVTEPLKHIGKGAGEFIKALMKEIPVLLQIPVLAILALAVLSFFYGAGRSVPMLRHFGGPDREPPRALEPDDRRRQKGLDYRLHGGAGDADFSYRGPAGSIEQGPYDKMHASKRDALRQRFHSGNKSPEVLRAFDLPDTEAQEHPEVVPSHKSPIMNTNLETGELPGESTPTEYSQSAKDVSGQVPSAGKSSPTVDKAQLKTDSECSPPGGCPPSKEAAVAAHGTEPVSSPCG
notes: CLCC1, mouse, full length, with C350F; also called C350F mCLCC1; source: High Five insect cells (baculovirus), purified (Ni-NTA, Superose 6 Increase)
With B2, the binding result is “binds”.
